Laboratory results as given in US20260109761A1 (IP2IPO INNOVATIONS, published 2026).
Changes are numbered by the printed parent chain.

B1: H2_T63Y_VL-par (antibody, V domains shown)
VH: QVQLVESGGGVVQPGRSLRLSCAASGFTFSDYGMHWVRQAPGKGLEWVAYISSGGTTIYYADYVKGRFTISRDNSKNTLYLQMNSLRAEDTAVYYCARWTNLYAMDYWGQGTTVTVSS
VL: DIVLTQSPDSLAVSLGERATINCRASKSVSTSGYSYMHWYQQKPGQPPKFLIYLASNLESGVPDRFSGSGSGTDFTLTISSLQAEDVAVYYCQHSREVPYTFGGGTKVEIKR
notes: Fc null human IgG1 / human kappa
B2: H3_M105P_L2 (antibody, V domains shown)
VH: B1 VH with Y63T, M105P
VL: B1 VL with L58K
notes: as for B1
B3: H3_W99H_VL-par (antibody, V domains shown)
VH: B1 VH with Y63T, W99H
VL: B1 VL
notes: as for B1
B4: H2_Y60K_L2 (antibody, V domains shown)
VH: B1 VH with Y60K, Y63T
VL: B1 VL with L58K
notes: as for B1

The binders below were run against T1, huZIP12-ECD-GST (human, UniProt Q504Y0 24-202) (assay: HTRF competition: unlabelled antibody against Tb-labelled 51B12-parent on hZIP12-ECD-GST, detected with anti-GST-XL665).
T1 construct: also called hZIP12-ECD-GST; human ZIP12-ECD-GST; not shown: glutathione S-transferase (GST) tag
T1 sequence (Q504Y0 24-202): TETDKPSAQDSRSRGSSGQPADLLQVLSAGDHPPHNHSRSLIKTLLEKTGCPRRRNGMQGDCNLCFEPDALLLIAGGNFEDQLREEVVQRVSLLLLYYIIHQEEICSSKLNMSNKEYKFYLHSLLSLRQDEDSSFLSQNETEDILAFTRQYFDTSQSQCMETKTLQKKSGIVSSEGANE
Method: Homogeneous Time Resolved Fluorescence (HTRF) assays were used to analyse the antibodies. A checkerboard assay was performed to validate the binding of the terbium labeled-antibody with hZIP12-ECD-GST. Serial dilutions (starting at 1000 ng/ml, semi-log dilutions) of Terbium-labeled 51B12-parent were incubated with serial dilutions of hZIP12-ECD-GST (starting at 5000 ng/ml, semi-log dilutions) followed by incubation with anti-GST-XL665. After excitation (320 nm), emission signals were obtained and HTRF ratio was calculated (665 nm/615 nm, Panel A). Signal/background ratios (S/B) were calculated from the HTRF ratios (0 ng/ml hZIP12-ECD-GST as background signal) and plotted against the Tb-51B12-parent concentration. The combinations 500 ng/ml hZIP12-ECD-GST+50 ng Tb-Ab, 150 ng/ml hZIP12-ECD-GST+50 ng Tb-Ab and 50 ng/ml hZIP12-ECD-GST+50 ng Tb-Ab were chosen as range for the competition assay. For the HTRF assay, 150 ng/ml hZIP12-ECD-GST+30 ng/ml Tb-51B12 was selected.

Binder	IC50 (read off the curve) [µg/mL]
B1	~0.2
B2	~0.2
B3	~0.06
B4	~0.06
